Measurements: US10562947B2, “Compositions and methods for preventing or treating diseases, conditions or processes characterized by aberrant fibroblast proliferation and extracellular matrix deposition” (MOERAE MATRIX, INC., priority 2011, dated 2020)
Where a SMILES comes first, the peptide text is derived from it.

Experiments:
Assay in all cases: Kinase Profiling Assay
Format in all cases: biochemical
CaMKI(h) = CaMKI(h) (Homo sapiens, UniProt Q14012); conditions: for CaMKI(h) % activity: 100 μM peptide
Method in brief: (§1)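 Selectivity profiling: MK2-targeting peptides tested on 266 human kinases. All activity determinations done in duplicate.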

AMPKα1(h) = AMPKα1(h) (Homo sapiens, UniProt Q13131); conditions: 100 μM peptide
Method in brief: as §1

BrSK2(h) = target: T1, BrSK2(h) (Homo sapiens, UniProt Q8IWQ3); conditions: 100 μM peptide
T1 sequence (Q8IWQ3 1-736): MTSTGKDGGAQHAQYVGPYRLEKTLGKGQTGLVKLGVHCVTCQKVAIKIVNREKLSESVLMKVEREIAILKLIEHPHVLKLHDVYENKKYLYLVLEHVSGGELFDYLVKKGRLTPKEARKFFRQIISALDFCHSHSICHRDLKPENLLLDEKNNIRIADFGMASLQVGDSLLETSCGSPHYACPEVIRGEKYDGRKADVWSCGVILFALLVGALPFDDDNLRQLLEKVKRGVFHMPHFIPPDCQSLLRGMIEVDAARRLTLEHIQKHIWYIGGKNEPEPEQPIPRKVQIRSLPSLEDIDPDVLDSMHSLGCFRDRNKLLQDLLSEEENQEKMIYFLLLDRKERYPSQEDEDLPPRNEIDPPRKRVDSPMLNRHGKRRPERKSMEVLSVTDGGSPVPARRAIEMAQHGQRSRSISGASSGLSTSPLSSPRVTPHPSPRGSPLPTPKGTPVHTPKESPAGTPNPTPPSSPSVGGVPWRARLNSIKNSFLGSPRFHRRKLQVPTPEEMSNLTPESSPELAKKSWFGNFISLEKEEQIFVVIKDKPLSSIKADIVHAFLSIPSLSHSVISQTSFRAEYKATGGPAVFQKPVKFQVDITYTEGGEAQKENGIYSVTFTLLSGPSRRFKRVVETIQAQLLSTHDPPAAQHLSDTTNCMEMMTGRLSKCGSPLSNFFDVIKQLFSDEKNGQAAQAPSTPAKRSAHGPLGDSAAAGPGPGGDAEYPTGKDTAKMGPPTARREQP
Method in brief: as §1

CDK9/cyclin T1(h) = CDK9/cyclin T1(h) (Homo sapiens, UniProt P50750); conditions: 100 μM peptide
Method in brief: as §1

CSK(h) = CSK(h) (Homo sapiens, UniProt P41240); conditions: 100 μM peptide
Method in brief: as §1

CaMKIIβ(h) = CaMKIIβ(h) (Homo sapiens, UniProt Q13554); conditions: 100 μM peptide
Method in brief: as §1

GSK3β(h) = target: T2, GSK3β(h) (Homo sapiens, UniProt P49841); conditions: 100 μM peptide
T2 construct: purchased Millipore
Method in brief: as §1

IR(h), activated = target: T3, IR(h), activated (Homo sapiens, UniProt P06213); conditions: 100 μM peptide
T3 construct: purchased Millipore
Method in brief: as §1

Lck(h) activated = Lck(h) activated (Homo sapiens, UniProt P06239); conditions: 100 μM peptide
Method in brief: as §1

Lyn(h) = Lyn(h) (Homo sapiens, UniProt P07948); conditions: 100 μM peptide
Method in brief: as §1

MEK1(h) = MEK1(h) (Homo sapiens, UniProt Q02750); conditions: 100 μM peptide
Method in brief: as §1

MLCK(h) = MLCK(h) (Homo sapiens, UniProt Q9H1R3); conditions: 100 μM peptide
Method in brief: as §1

NEK3(h) = target: T4, NEK3(h) (Homo sapiens, UniProt P51956); conditions: 100 μM peptide
T4 sequence (P51956 1-506): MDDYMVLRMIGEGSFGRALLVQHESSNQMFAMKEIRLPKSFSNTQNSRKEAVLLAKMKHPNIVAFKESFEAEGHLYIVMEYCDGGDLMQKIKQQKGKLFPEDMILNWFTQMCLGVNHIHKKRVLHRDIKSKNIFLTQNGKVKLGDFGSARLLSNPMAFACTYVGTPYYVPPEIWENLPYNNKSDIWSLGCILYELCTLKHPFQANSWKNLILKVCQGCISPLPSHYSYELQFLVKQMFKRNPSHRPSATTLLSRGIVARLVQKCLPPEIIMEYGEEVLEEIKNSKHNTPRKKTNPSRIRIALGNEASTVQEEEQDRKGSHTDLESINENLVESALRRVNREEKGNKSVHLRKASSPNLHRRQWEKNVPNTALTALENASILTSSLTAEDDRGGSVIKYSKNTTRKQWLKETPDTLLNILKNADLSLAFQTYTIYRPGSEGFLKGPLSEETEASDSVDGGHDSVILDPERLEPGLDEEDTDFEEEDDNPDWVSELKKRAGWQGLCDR
Method in brief: as §1

NEK6(h) = NEK6(h) (Homo sapiens, UniProt Q9HC98); conditions: 100 μM peptide
Method in brief: as §1

Ron(h) = target: T5, Ron(h) (Homo sapiens, UniProt Q04912); conditions: 100 μM peptide
T5 construct: purchased Millipore (IC50 Profiler Express service)
Method in brief: as §1

SGK2(h) = target: T6, SGK2(h) (Homo sapiens, UniProt Q9HBY8); conditions: 100 μM peptide
T6 sequence (Q9HBY8 1-367): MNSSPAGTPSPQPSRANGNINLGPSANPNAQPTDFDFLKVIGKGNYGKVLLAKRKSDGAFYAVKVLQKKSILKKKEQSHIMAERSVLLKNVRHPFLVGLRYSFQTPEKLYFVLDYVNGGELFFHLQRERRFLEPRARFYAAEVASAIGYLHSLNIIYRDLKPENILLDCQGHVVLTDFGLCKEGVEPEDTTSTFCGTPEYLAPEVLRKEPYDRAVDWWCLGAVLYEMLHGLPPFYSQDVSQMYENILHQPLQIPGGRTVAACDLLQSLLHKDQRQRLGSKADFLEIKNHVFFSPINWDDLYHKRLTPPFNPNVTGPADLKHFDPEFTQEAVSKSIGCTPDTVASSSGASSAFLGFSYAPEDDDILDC
Method in brief: as §1

cKit(D816V)(h) = cKit(D816V)(h) (Homo sapiens, UniProt P10721, D816V); conditions: 100 μM peptide
Method in brief: as §1

Met(Y1248H)(h) = Met(Y1248H)(h) (Homo sapiens, UniProt P08581, Y1230H); conditions: 100 μM peptide
Method in brief: as §1

SRPK2(h) = SRPK2(h) (Homo sapiens, UniProt P78362); conditions: 100 μM peptide
Method in brief: as §1

T3 sequence (P06213 1005-1310 limits assumed): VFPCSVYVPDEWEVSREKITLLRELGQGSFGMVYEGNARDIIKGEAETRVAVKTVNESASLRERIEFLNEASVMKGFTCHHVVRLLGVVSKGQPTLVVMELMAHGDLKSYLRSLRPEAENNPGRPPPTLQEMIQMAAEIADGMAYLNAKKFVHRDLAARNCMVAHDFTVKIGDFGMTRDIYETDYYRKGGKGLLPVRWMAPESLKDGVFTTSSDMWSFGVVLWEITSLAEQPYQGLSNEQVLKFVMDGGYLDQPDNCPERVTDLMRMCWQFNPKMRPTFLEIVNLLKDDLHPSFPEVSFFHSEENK
Sequence of CaMKI(h) (Q14012 whole entry): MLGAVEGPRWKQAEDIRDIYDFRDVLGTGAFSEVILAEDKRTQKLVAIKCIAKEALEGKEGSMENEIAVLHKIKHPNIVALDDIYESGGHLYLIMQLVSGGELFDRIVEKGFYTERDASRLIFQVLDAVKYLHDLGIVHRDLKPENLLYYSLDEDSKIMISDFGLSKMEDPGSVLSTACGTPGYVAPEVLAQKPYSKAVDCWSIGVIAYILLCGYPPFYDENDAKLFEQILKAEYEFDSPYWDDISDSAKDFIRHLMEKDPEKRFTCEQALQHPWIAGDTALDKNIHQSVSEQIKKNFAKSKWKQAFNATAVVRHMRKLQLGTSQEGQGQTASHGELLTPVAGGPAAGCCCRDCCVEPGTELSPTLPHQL
Sequence of NEK6(h) (Q9HC98 whole entry): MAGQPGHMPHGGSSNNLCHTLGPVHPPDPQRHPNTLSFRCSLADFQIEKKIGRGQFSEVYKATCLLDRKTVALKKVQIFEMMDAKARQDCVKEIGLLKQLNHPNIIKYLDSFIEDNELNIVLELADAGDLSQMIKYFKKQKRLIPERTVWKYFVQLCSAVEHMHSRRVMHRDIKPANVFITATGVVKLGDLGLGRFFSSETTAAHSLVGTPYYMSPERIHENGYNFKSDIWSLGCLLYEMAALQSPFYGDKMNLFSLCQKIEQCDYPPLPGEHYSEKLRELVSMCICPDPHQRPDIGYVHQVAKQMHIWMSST
Sequence of Lyn(h) (P07948 whole entry): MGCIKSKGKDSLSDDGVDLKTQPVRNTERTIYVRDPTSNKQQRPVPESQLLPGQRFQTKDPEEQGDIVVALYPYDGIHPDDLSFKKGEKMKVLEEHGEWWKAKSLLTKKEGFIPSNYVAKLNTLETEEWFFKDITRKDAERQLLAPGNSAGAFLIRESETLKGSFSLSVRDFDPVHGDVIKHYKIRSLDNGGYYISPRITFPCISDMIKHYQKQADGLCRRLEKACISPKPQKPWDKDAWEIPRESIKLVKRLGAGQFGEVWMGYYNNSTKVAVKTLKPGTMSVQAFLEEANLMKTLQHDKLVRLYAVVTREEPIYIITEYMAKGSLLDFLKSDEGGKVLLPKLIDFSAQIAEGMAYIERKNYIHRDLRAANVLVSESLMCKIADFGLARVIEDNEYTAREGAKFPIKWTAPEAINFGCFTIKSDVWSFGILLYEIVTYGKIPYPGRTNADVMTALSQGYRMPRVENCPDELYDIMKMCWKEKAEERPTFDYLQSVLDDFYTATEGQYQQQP
T2 sequence (P49841 whole entry): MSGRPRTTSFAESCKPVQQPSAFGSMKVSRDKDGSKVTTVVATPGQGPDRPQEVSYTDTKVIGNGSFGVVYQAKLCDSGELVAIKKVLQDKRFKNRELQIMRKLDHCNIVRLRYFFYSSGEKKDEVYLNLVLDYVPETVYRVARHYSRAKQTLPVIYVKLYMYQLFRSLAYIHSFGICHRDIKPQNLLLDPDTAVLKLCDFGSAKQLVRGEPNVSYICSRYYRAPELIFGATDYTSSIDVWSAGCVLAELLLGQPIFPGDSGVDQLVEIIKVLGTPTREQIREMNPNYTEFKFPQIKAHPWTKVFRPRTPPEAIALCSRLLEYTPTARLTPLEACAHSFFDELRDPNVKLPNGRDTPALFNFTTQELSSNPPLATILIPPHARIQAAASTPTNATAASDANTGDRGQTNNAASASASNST
Sequence of MLCK(h) (Q9H1R3 2-596 limits assumed): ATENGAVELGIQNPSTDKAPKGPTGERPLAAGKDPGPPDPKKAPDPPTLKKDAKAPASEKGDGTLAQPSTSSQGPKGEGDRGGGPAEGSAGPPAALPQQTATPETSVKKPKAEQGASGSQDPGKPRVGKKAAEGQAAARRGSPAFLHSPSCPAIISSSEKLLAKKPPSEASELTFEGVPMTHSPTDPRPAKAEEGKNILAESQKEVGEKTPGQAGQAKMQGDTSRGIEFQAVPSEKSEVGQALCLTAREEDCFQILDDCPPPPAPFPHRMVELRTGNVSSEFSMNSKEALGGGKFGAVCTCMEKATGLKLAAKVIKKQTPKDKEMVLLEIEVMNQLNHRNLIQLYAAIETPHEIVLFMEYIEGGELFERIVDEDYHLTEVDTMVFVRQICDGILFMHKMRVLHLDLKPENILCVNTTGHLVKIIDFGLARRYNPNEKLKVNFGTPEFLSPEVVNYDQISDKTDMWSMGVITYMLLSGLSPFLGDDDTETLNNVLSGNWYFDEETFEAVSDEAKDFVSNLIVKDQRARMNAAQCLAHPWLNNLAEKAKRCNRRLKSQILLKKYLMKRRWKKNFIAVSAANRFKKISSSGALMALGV
Sequence of CSK(h) (P41240 whole entry): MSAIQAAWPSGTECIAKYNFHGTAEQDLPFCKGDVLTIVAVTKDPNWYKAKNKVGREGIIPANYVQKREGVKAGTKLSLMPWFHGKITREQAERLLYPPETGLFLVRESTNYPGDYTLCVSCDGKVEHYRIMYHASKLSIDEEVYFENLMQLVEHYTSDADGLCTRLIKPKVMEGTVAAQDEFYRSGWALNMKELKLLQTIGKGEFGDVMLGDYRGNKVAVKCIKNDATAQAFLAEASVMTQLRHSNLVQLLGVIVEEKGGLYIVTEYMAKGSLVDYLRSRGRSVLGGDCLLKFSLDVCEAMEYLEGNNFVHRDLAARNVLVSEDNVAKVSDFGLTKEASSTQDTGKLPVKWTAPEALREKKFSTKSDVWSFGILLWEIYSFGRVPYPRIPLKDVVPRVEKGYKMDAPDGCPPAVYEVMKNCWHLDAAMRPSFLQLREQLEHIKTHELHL
Sequence of AMPKα1(h) (Q13131 whole entry): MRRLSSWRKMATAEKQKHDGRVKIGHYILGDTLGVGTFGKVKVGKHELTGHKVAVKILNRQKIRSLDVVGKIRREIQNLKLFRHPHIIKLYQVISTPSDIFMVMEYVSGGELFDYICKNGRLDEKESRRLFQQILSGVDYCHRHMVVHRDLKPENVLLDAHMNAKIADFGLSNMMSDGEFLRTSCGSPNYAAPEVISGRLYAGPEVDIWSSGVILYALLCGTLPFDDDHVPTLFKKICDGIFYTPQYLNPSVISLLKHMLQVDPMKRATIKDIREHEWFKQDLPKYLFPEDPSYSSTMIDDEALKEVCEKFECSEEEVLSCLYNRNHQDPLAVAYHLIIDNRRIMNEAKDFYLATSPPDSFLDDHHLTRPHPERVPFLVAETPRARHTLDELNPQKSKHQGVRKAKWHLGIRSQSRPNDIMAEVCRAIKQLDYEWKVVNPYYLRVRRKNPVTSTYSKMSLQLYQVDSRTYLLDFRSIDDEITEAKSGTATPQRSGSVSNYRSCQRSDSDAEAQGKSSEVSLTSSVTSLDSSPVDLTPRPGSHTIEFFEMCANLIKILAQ
Sequence of AMPKα1(h) (Q9Y478 whole entry partner): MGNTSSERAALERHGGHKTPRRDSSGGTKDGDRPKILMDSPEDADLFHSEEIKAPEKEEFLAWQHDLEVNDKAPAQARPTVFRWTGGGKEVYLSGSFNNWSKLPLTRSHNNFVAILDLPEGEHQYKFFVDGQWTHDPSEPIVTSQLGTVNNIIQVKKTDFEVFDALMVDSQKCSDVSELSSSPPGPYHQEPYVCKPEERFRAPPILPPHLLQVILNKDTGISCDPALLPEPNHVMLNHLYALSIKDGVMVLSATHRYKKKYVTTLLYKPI
Sequence of AMPKα1(h) (P54619 whole entry partner): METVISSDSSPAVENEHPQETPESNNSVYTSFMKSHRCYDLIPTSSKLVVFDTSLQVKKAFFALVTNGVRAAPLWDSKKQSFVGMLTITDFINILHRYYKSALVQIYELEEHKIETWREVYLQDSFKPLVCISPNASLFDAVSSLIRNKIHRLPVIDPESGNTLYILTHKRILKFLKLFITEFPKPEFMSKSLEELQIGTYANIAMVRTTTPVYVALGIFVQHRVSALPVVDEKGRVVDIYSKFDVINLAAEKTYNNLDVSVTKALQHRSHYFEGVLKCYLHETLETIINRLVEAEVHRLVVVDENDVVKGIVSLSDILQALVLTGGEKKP
Sequence of CaMKIIβ(h) (Q13554 whole entry): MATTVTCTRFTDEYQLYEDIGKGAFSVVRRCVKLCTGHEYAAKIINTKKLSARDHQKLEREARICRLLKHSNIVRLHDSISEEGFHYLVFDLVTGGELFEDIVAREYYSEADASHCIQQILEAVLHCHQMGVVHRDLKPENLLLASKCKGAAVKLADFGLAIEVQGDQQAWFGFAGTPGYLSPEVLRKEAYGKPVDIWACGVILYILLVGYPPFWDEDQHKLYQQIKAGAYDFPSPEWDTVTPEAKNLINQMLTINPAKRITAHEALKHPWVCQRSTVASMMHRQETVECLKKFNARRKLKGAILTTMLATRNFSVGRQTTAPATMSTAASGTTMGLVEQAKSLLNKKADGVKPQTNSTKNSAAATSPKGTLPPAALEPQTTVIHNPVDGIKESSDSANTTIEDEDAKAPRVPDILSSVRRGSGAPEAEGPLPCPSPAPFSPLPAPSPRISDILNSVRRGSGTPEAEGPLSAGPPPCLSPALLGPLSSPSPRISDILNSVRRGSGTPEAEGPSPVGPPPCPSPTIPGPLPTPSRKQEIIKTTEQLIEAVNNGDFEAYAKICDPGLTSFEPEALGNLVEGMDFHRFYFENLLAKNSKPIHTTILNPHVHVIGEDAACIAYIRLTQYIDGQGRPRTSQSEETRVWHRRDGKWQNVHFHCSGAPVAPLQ

CC(C)C[C@H](NC(=O)[C@H](C)NC(=O)[C@H](CCCCN)NC(=O)[C@H](C)NC(=O)[C@H](CCCNC(=N)N)NC(=O)[C@H](C)NC(=O)[C@H](CCC(N)=O)NC(=O)[C@H](CCCNC(=N)N)NC(=O)[C@H](C)NC(=O)[C@H](C)NC(=O)[C@H](C)NC(=O)[C@H](CCCNC(=N)N)NC(=O)[C@H](C)NC(=O)[C@@H](N)Cc1ccc(O)cc1)C(=O)N[C@@H](C)C(=O)N[C@@H](CCCNC(=N)N)C(=O)N[C@@H](CCC(N)=O)C(=O)N[C@@H](CC(C)C)C(=O)NCC(=O)N[C@H](C(=O)N[C@@H](C)C(=O)N[C@@H](C)C(=O)O)C(C)C [MMI-0100] (H-YARAAARQARAKALARQLGVAA-OH; N-terminus and C-terminus assumed)
inhibition at 100 µM (CaMKI(h); read-out: inhibition of kinase activity of CaMKI): > 65%

FAKLAARLYRKALARQLGVAA [MMI-0300]
AMPKα1(h) % activity (AMPKα1(h)): 71%
BrSK2(h) % activity (BrSK2(h)): 83%
CDK9/cyclin T1(h) % activity (CDK9/cyclin T1(h)): 91%
CSK(h) % activity (CSK(h)): 49%
CaMKI(h) % activity (CaMKI(h)): 1%
CaMKIIβ(h) % activity (CaMKIIβ(h)): 2%
GSK3β(h) % activity (GSK3β(h)): 205%
IR(h), activated % activity (IR(h), activated): 79%
Lck(h) activated % activity (Lck(h) activated): 243%
Lyn(h) % activity (Lyn(h)): 69%
MEK1(h) % activity (MEK1(h)): 77%
MLCK(h) % activity (MLCK(h)): 2%
NEK3(h) % activity (NEK3(h)): 92%
NEK6(h) % activity (NEK6(h)): 82%
Ron(h) % activity (Ron(h)): 93%
SGK2(h) % activity (SGK2(h)): 56%
cKit(D816V)(h) % activity (cKit(D816V)(h)): 60%

HRRIKAWLKKIKALARQLGVAA (Mammalian) [MMI-0500]
AMPKα1(h) % activity (AMPKα1(h)): 35%
BrSK2(h) % activity (BrSK2(h)): 84%
CDK9/cyclin T1(h) % activity (CDK9/cyclin T1(h)): 6%
CSK(h) % activity (CSK(h)): 2%
CaMKI(h) % activity (CaMKI(h)): −1%
CaMKIIβ(h) % activity (CaMKIIβ(h)): 3%
GSK3β(h) % activity (GSK3β(h)): 238%
IR(h), activated % activity (IR(h), activated): 90%
Lck(h) activated % activity (Lck(h) activated): 76%
Lyn(h) % activity (Lyn(h)): 31%
MEK1(h) % activity (MEK1(h)): 21%
MLCK(h) % activity (MLCK(h)): 0%
Met(Y1248H)(h) % activity (Met(Y1248H)(h)): 126%
NEK3(h) % activity (NEK3(h)): 20%
NEK6(h) % activity (NEK6(h)): 49%
Ron(h) % activity (Ron(h)): 46%
SGK2(h) % activity (SGK2(h)): −1%
SRPK2(h) % activity (SRPK2(h)): 80%
cKit(D816V)(h) % activity (cKit(D816V)(h)): 30%

KAFAKLAARLYRKALARQLGVAA [MMI-0400]
AMPKα1(h) % activity (AMPKα1(h)): 87%
BrSK2(h) % activity (BrSK2(h)): 86%
CDK9/cyclin T1(h) % activity (CDK9/cyclin T1(h)): 235%
CSK(h) % activity (CSK(h)): 16%
CaMKI(h) % activity (CaMKI(h)): 0%
CaMKIIβ(h) % activity (CaMKIIβ(h)): 11%
GSK3β(h) % activity (GSK3β(h)): 202%
IR(h), activated % activity (IR(h), activated): 59%
Lck(h) activated % activity (Lck(h) activated): 216%
Lyn(h) % activity (Lyn(h)): 3%
MEK1(h) % activity (MEK1(h)): 77%
MLCK(h) % activity (MLCK(h)): 1%
Met(Y1248H)(h) % activity (Met(Y1248H)(h)): 63%
NEK3(h) % activity (NEK3(h)): 85%
NEK6(h) % activity (NEK6(h)): 85%
Ron(h) % activity (Ron(h)): 79%
SGK2(h) % activity (SGK2(h)): 98%
SRPK2(h) % activity (SRPK2(h)): 97%
cKit(D816V)(h) % activity (cKit(D816V)(h)): 35%

YARAAARQARAKALNRQLGVA (Mammalian) [MMI-0200]
AMPKα1(h) % activity (AMPKα1(h)): 108%
CSK(h) % activity (CSK(h)): 33%
CaMKI(h) % activity (CaMKI(h)): 21%
CaMKIIβ(h) % activity (CaMKIIβ(h)): 53%
GSK3β(h) % activity (GSK3β(h)): 132%
Lck(h) activated % activity (Lck(h) activated): 90%
Lyn(h) % activity (Lyn(h)): 98%
Met(Y1248H)(h) % activity (Met(Y1248H)(h)): 153%
NEK3(h) % activity (NEK3(h)): 100%
NEK6(h) % activity (NEK6(h)): 98%
Ron(h) % activity (Ron(h)): 120%
SRPK2(h) % activity (SRPK2(h)): 100%
cKit(D816V)(h) % activity (cKit(D816V)(h)): 118%
